pKd: −log10 of the molar value.
How the values were obtained:
[1] = system: NCI-H460 tumor-bearing mice (lung cancer); experiment: Biodistribution: lutetium accumulation in tumor, plasma and healthy tissues by ICP-MS; format: in vivo; details: 0.5 mg/kg lutetium conjugate
Method: Lutetium accumulation was measured in tumor, plasma and healthy tissues of NCI-H460 tumor-bearing mice (lung cancer). NCJ-H460 tumor bearing mice were dosed with 0.5 mg/kg of lutetium conjugates. At the time points indicated, mice were sacrificed and tumor, liver, kidneys and plasma were taken. All tissues were analyzed for lutetium content by ICP-MS, and lutetium uptake in % ID/g determined by the following equation: […]
Biodistribution at 24 h and Tumor/Kidney ratio (T/K), Tumor/Liver ratio (T/L), Tumor/Plasma ratio (T/P) are give in the table below.

[2] = target: T1, purified N-terminal HSP90a (Homo sapiens, UniProt P07900); experiment: HSP90 binding, competitive fluorescence polarization assay
T1 construct: 350 ng of N-terminal HSP90a
Method: HSP90 binding was determined by a competitive fluorescence polarization assay with purified N-terminal HSP90a. A series of dilutions of the test compounds were prepared with 10% DMSO in assay buffer and 10 μl of the dilution was added to a 100 μl reaction so that the final concentration of DMSO is 1% in all reactions. The reactions were conducted at room temperature for 3 hours in a 100 μl mixture containing assay buffer, 5 nM FITC Labeled Geldanamycin, 350 ng of N-terminal HSP90a, and the test compound. Fluorescence intensity was measured at an excitation of 485 nm and an emission of 530 nm using a Tecan Infinite M1000 microplate reader. Fluorescence intensity is converted to fluorescence polarization using the Tecan Magellan6 software. The fluorescence polarization data were analyzed using the computer software, Graphpad Prism. The fluorescence polarization (FPt) in absence of the compound in each data set was defined as 100% activity. In the absence of protein and the compound, the value of fluorescent polarization (FPb) in each data set was defined as 0% activity. The percent activity in the presence of the compound was calculated according to the following equation: % activity=(FP−FPb)/(FPt−FPb)×100%, where FP=the fluorescence polarization in the presence of the compound. HSP90 binding data are below.

Compound | % ID/g uptake, H460 tumor, 24 h [1] | % ID/g uptake, H460 tumor, 72 h [1] | % ID/g uptake, Kidney, 24 h [1] | % ID/g uptake, Kidney, 72 h [1] | % ID/g uptake, Liver, 24 h [1] | % ID/g uptake, Liver, 72 h [1] | % ID/g uptake, Plasma, 24 h [1] | % ID/g uptake, Plasma, 72 h [1] | pKd [2]
CCNC(=O)c1nnc(-c2cc(C(C)C)c(O)cc2O)n1-c1ccc(CN2CCN(C(=O)CCNC(=O)[C@@H](CCC(=O)N3CCN(Cc4ccc(-n5c(C(=O)NCC)nnc5-c5cc(C(C)C)c(O)cc5O)cc4)CC3)NC(=O)CCNC(=O)[C@@H](CCC(=O)O)NC(=O)[C@@H](CCC(=O)O)NC(=O)[C@@H](CCC(=O)O)NC(=O)COCCOCCNC(=O)CC[C@H](C(=O)O)N3CCN4CCN5CCN(CC3)CC(=O)[O][Lu]([O]C(=O)C5)[O]C(=O)C4)CC2)cc1 [T4] | 3.06 % ID/g | 2.19 % ID/g | 4.86 % ID/g | 2.28 % ID/g | 0.59 % ID/g | 0.62 % ID/g | 0.21 % ID/g | 0.09 % ID/g | 9.35
CCNC(=O)c1nnc(-c2cc(C(C)C)c(O)cc2O)n1-c1ccc(CN2CCN(C(=O)CC[C@H](NC(=O)CCNC(=O)[C@@H](CCC(=O)O)NC(=O)[C@@H](CCC(=O)O)NC(=O)[C@@H](CCC(=O)O)NC(=O)COCCOCCNC(=O)CC[C@H](C(=O)O)N3CCN4CCN5CCN(CC3)CC(=O)[O][Lu]([O]C(=O)C5)[O]C(=O)C4)C(=O)N3CCN(Cc4ccc(-n5c(C(=O)NCC)nnc5-c5cc(C(C)C)c(O)cc5O)cc4)CC3)CC2)cc1 [T5] | 1.74 % ID/g | 0.00 % ID/g | 3.14 % ID/g | 1.08 % ID/g | 0.68 % ID/g | 0.23 % ID/g | 0.16 % ID/g | 0.01 % ID/g | –
CCNC(=O)c1nnc(-c2cc(C(C)C)c(O)cc2O)n1-c1ccc(OC2CCN(C(=O)CCNC(=O)[C@@H](CCC(=O)N3CCC(Oc4ccc(-n5c(C(=O)NCC)nnc5-c5cc(C(C)C)c(O)cc5O)cc4)CC3)NC(=O)CC[C@H](C(=O)O)N3CCN4CCN5CCN(CC3)CC(=O)[O][Lu]([O]C(=O)C5)[O]C(=O)C4)CC2)cc1 [T6] | 7.00 % ID/g | 4.52 % ID/g | 6.77 % ID/g | 2.57 % ID/g | 10.70 % ID/g | 8.90 % ID/g | 1.65 % ID/g | 1.89 % ID/g | 9.35
CCNC(=O)c1nnc(-c2cc(C(C)C)c(O)cc2O)n1-c1ccc2c(ccn2CCC2CCN(C(=O)CCNC(=O)[C@@H](CCC(=O)O)NC(=O)[C@@H](CCC(=O)O)NC(=O)[C@@H](CCC(=O)O)NC(=O)COCCOCCNC(=O)[C@H](CCCCNC(=O)CC[C@H](C(=O)O)N3CCN4CCN5CCN(CC3)CC(=O)[O][Lu]([O]C(=O)C5)[O]C(=O)C4)NC(=O)CCCc3ccc(I)cc3)CC2)c1 [T7] | 7.54 % ID/g | 4.05 % ID/g | 24.70 % ID/g | 13.10 % ID/g | 1.88 % ID/g | 1.01 % ID/g | 4.71 % ID/g | 0.42 % ID/g | –
CCNC(=O)c1nnc(-c2cc(C(C)C)c(O)cc2O)n1-c1ccc(CN2CCN(C(=O)CCNC(=O)[C@@H](CCC(=O)N3CCN(Cc4ccc(-n5c(C(=O)NCC)nnc5-c5cc(C(C)C)c(O)cc5O)cc4)CC3)NC(=O)CCNC(=O)[C@@H](CCC(=O)O)NC(=O)[C@@H](CCC(=O)O)NC(=O)[C@@H](CCC(=O)O)NC(=O)COCCOCCNC(=O)[C@H](Cc3ccccc3)NC(=O)CNC(=O)CNC(=O)CC[C@H](C(=O)O)N3CCN4CCN5CCN(CC3)CC(=O)[O][Lu]([O]C(=O)C5)[O]C(=O)C4)CC2)cc1 [T8] | 1.00 % ID/g | 0.44 % ID/g | 3.24 % ID/g | 0.84 % ID/g | 0.30 % ID/g | 0.07 % ID/g | 0.17 % ID/g | 0.00 % ID/g | 9.32
CCNC(=O)c1nnc(-c2cc(C(C)C)c(O)cc2O)n1-c1ccc(OC2CCN(C(=O)CCNC(=O)[C@@H](CCC(=O)N3CCC(Oc4ccc(-n5c(C(=O)NCC)nnc5-c5cc(C(C)C)c(O)cc5O)cc4)CC3)NC(=O)CCNC(=O)[C@@H](CCC(=O)O)NC(=O)[C@@H](CCC(=O)O)NC(=O)[C@@H](CCC(=O)O)NC(=O)COCCOCCNC(=O)[C@H](CCCCNC(=O)CC[C@H](C(=O)O)N(CC)CCN3CCN4CCN(C)CC(=O)[O][Lu]([O]C(=O)C4)[O]C(=O)C3)NC(=O)CCCc3ccc(I)cc3)CC2)cc1 [T12] | 9.01 % ID/g | 5.87 % ID/g | 34.00 % ID/g | 18.60 % ID/g | 3.73 % ID/g | 2.03 % ID/g | 5.08 % ID/g | 0.41 % ID/g | –

Reference: patent US20260166158A1, “HSP90-BINDING CONJUGATES AND FORMULATIONS THEREOF” (Fusion Pharmaceuticals Inc., priority 2019, published 2026)
